A word on the Kd: it is the free concentration of one partner at which half of the binding sites on the other are occupied at equilibrium, for simple one-to-one binding. A higher Kd goes with weaker binding. Usually kon stands for the second-order rate constant of association.

From patent US20170015742A1 (published 2017) come the findings set out here.

The target in one test is T1, VEGF-A (human, UniProt P15692 207-395).
T1 construct: also called hVEGF165
The experiment in a line: Biacore SPR; DVD-Ig captured on anti-human Fc, antigen injected. How it is done:
(§1) For example, approximately 9000 RU of goat anti-human Fc specific polyclonal antibody (Thermo Fisher Scientific Inc., Rockford, Ill.) diluted in 10 mM sodium acetate (pH 4.5) is directly immobilized across a CM5 research grade biosensor chip using a standard amine coupling kit according to manufacturer's instructions and procedures at 25 μg/ml. Unreacted moieties on the biosensor surface were blocked with ethanolamine. For kinetic analysis, rate equations derived from the 1:1 Langmuir binding model were fitted simultaneously to multiple antigen injections (using global fit analysis) with the use of Scrubber 2 (BioLogic Software), Biacore Biaevaluation 4.0.1 software or Biacore T100 Evaluation software. Purified antibodies or DVD-Ig molecules were diluted in running buffer for capture across goat anti-human Fc reaction surfaces. Antibodies or DVD-Ig molecules to be captured as a ligand (1 μg/ml) were injected over reaction matrices at a flow rate of 10 μl/minute. During the assay, all measurements were referenced against the capture surface alone (i.e., with no captured antibody or DVD-Ig molecule). […] The equilibrium dissociation constant KD (M) of the reaction between antibodies and the target antigen was then calculated from the kinetic rate constants by the following formula: KD=Koff/Kₒₙ. Binding was recorded as a function of time and kinetic rate constants were calculated.

For another test, the target named is T2, PDGF-BB (human, UniProt P01127 82-190, limits assumed).
T2 construct: also called human PDGF-BB; hPDGF-BB
T2 sequence (P01127 82-190 limits assumed): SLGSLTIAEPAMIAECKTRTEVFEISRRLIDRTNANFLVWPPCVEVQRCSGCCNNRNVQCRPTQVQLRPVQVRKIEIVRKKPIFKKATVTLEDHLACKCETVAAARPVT
The description is as above. How it is done: as §1

T1 sequence (P15692 other isoform, or with tags, fused parts or gaps limits assumed): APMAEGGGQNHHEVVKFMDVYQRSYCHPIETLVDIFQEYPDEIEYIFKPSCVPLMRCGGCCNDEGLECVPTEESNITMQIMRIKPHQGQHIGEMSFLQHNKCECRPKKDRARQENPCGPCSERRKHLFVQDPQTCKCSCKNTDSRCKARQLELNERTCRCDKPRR

B1: 9E8.4E-LS-9A8.12 (PR-1577550) (bispecific antibody, human IgG1, kappa, L234A L235A)
heavy: EVTLRESGPALVKPTQTLTLTCTFSGFSLSTYGMGVGWIRQPPGKALEWLANIWWDDDKYYNPSLKNRLTISKDTSKNQVVLTMTNMDPVDTATYYCARIESIGTTYSFDYWGQGTMVTVSSASTKGPSVFPLAPEVQLVQSGAEVKKPGASVKVSCKASGYTFTNYGMYWVRQAPGQGLEWMGWINTETGKPIYADDFKGRVTMTTDTSTSTAYMELRSLRSDDTAVYYCARVDYDGSFWFAYWGQGTLVTVSSASTKGPSVFPLAPSSKSTSGGTAALGCLVKDYFPEPVTVSWNSGALTSGVHTFPAVLQSSGLYSLSSVVTVPSSSLGTQTYICNVNHKPSNTKVDKKVEPKSCDKTHTCPPCPAPEAAGGPSVFLFPPKPKDTLMISRTPEVTCVVVDVSHEDPEVKFNWYVDGVEVHNAKTKPREEQYNSTYRVVSVLTVLHQDWLNGKEYKCKVSNKALPAPIEKTISKAKGQPREPQVYTLPPSREEMTKNQVSLTCLVKGFYPSDIAVEWESNGQPENNYKTTPPVLDSDGSFFLYSKLTVDKSRWQQGNVFSCSVMHEALHNAYTQKSLSLSPGK
light: EFVLTQSPGTLSLSPGERATLSCERSSGDIGESYVSWYQQKPGQAPRLVIYADDQRPSGIPDRFSGSGSGTDFTLTISRLEPEDFAVYYCQSYDINIDIVFGGGTKVEIKRTVAAPDTQLTQSPSSLSASVGDRVTITCRASESVSTVIHWYQQKPGKQPKLLIHGASNLESGVPSRFSGSGSGTDFTLTISSLQPEDFATYFCQQHWNDPPTFGQGTKLEIKRTVAAPSVFIFPPSDEQLKSGTASVVCLLNNFYPREAKVQWKVDNALQSGNSQESVTEQDSKDSTYSLSSTLTLSKADYEKHKVYACEVTHQGLSSPVTKSFNRGEC
notes: DVD-Ig: outer hBDI-9E8.4E (PDGF), inner hBEW-9A8.12 (VEGF), linkers HG-long/LK-short; Human IgG1 L234A, L235A, H435A with kappa
In the test with VEGF-A, B1 had a Kd of 0.23 nM and a kon of 640000 M⁻¹ s⁻¹. In the test with PDGF-BB, this molecule showed a Kd of 0.005 nM and a kon of 5e+07 M⁻¹ s⁻¹.

B2: 9E8.4E-SL-9A8.12 (PR-1577548) (bispecific antibody, human IgG1, kappa, L234A L235A)
heavy: EVTLRESGPALVKPTQTLTLTCTFSGFSLSTYGMGVGWIRQPPGKALEWLANIWWDDDKYYNPSLKNRLTISKDTSKNQVVLTMTNMDPVDTATYYCARIESIGTTYSFDYWGQGTMVTVSSASTKGPEVQLVQSGAEVKKPGASVKVSCKASGYTFTNYGMYWVRQAPGQGLEWMGWINTETGKPIYADDFKGRVTMTTDTSTSTAYMELRSLRSDDTAVYYCARVDYDGSFWFAYWGQGTLVTVSSASTKGPSVFPLAPSSKSTSGGTAALGCLVKDYFPEPVTVSWNSGALTSGVHTFPAVLQSSGLYSLSSVVTVPSSSLGTQTYICNVNHKPSNTKVDKKVEPKSCDKTHTCPPCPAPEAAGGPSVFLFPPKPKDTLMISRTPEVTCVVVDVSHEDPEVKFNWYVDGVEVHNAKTKPREEQYNSTYRVVSVLTVLHQDWLNGKEYKCKVSNKALPAPIEKTISKAKGQPREPQVYTLPPSREEMTKNQVSLTCLVKGFYPSDIAVEWESNGQPENNYKTTPPVLDSDGSFFLYSKLTVDKSRWQQGNVFSCSVMHEALHNAYTQKSLSLSPGK
light: EFVLTQSPGTLSLSPGERATLSCERSSGDIGESYVSWYQQKPGQAPRLVIYADDQRPSGIPDRFSGSGSGTDFTLTISRLEPEDFAVYYCQSYDINIDIVFGGGTKVEIKRTVAAPSVFIFPPDTQLTQSPSSLSASVGDRVTITCRASESVSTVIHWYQQKPGKQPKLLIHGASNLESGVPSRFSGSGSGTDFTLTISSLQPEDFATYFCQQHWNDPPTFGQGTKLEIKRTVAAPSVFIFPPSDEQLKSGTASVVCLLNNFYPREAKVQWKVDNALQSGNSQESVTEQDSKDSTYSLSSTLTLSKADYEKHKVYACEVTHQGLSSPVTKSFNRGEC
notes: DVD-Ig: outer hBDI-9E8.4E (PDGF), inner hBEW-9A8.12 (VEGF), linkers HG-short/LK-long; Human IgG1 L234A, L235A, H435A with kappa
In the test with VEGF-A, B2 showed an equilibrium dissociation constant (Kd) of 0.16 nM and a kon of 2.2e+06 M⁻¹ s⁻¹. In the test with PDGF-BB, the dissociation constant (Kd) turned out to be 0.0064 nM and the on-rate constant (kon) was 5e+07 M⁻¹ s⁻¹.

B3: 9A8.12-SL-9E8.4E (PR-1577166) (bispecific antibody, human IgG1, kappa, L234A L235A)
heavy: EVQLVQSGAEVKKPGASVKVSCKASGYTFTNYGMYWVRQAPGQGLEWMGWINTETGKPIYADDFKGRVTMTTDTSTSTAYMELRSLRSDDTAVYYCARVDYDGSFWFAYWGQGTLVTVSSASTKGPEVTLRESGPALVKPTQTLTLTCTFSGFSLSTYGMGVGWIRQPPGKALEWLANIWWDDDKYYNPSLKNRLTISKDTSKNQVVLTMTNMDPVDTATYYCARIESIGTTYSFDYWGQGTMVTVSSASTKGPSVFPLAPSSKSTSGGTAALGCLVKDYFPEPVTVSWNSGALTSGVHTFPAVLQSSGLYSLSSVVTVPSSSLGTQTYICNVNHKPSNTKVDKKVEPKSCDKTHTCPPCPAPEAAGGPSVFLFPPKPKDTLMISRTPEVTCVVVDVSHEDPEVKFNWYVDGVEVHNAKTKPREEQYNSTYRVVSVLTVLHQDWLNGKEYKCKVSNKALPAPIEKTISKAKGQPREPQVYTLPPSREEMTKNQVSLTCLVKGFYPSDIAVEWESNGQPENNYKTTPPVLDSDGSFFLYSKLTVDKSRWQQGNVFSCSVMHEALHNAYTQKSLSLSPGK
light: DTQLTQSPSSLSASVGDRVTITCRASESVSTVIHWYQQKPGKQPKLLIHGASNLESGVPSRFSGSGSGTDFTLTISSLQPEDFATYFCQQHWNDPPTFGQGTKLEIKRTVAAPSVFIFPPEFVLTQSPGTLSLSPGERATLSCERSSGDIGESYVSWYQQKPGQAPRLVIYADDQRPSGIPDRFSGSGSGTDFTLTISRLEPEDFAVYYCQSYDINIDIVFGGGTKVEIKRTVAAPSVFIFPPSDEQLKSGTASVVCLLNNFYPREAKVQWKVDNALQSGNSQESVTEQDSKDSTYSLSSTLTLSKADYEKHKVYACEVTHQGLSSPVTKSFNRGEC
notes: DVD-Ig: outer hBEW-9A8.12 (VEGF), inner hBDI-9E8.4E (PDGF), linkers HG-short/LK-long; Human IgG1 L234A, L235A, H435A with kappa
Regarding B3, in the test with VEGF-A, the dissociation constant (Kd) stood at 0.47 nM and the kon is 250000 M⁻¹ s⁻¹. In the test with PDGF-BB, the Kd worked out at 0.0083 nM and the on-rate (kon) came to 2.7e+07 M⁻¹ s⁻¹.

B4: 9A8.12-LS-9E8.4E (PR-1577547) (bispecific antibody, human IgG1, kappa, L234A L235A)
heavy: EVQLVQSGAEVKKPGASVKVSCKASGYTFTNYGMYWVRQAPGQGLEWMGWINTETGKPIYADDFKGRVTMTTDTSTSTAYMELRSLRSDDTAVYYCARVDYDGSFWFAYWGQGTLVTVSSASTKGPSVFPLAPEVTLRESGPALVKPTQTLTLTCTFSGFSLSTYGMGVGWIRQPPGKALEWLANIWWDDDKYYNPSLKNRLTISKDTSKNQVVLTMTNMDPVDTATYYCARIESIGTTYSFDYWGQGTMVTVSSASTKGPSVFPLAPSSKSTSGGTAALGCLVKDYFPEPVTVSWNSGALTSGVHTFPAVLQSSGLYSLSSVVTVPSSSLGTQTYICNVNHKPSNTKVDKKVEPKSCDKTHTCPPCPAPEAAGGPSVFLFPPKPKDTLMISRTPEVTCVVVDVSHEDPEVKFNWYVDGVEVHNAKTKPREEQYNSTYRVVSVLTVLHQDWLNGKEYKCKVSNKALPAPIEKTISKAKGQPREPQVYTLPPSREEMTKNQVSLTCLVKGFYPSDIAVEWESNGQPENNYKTTPPVLDSDGSFFLYSKLTVDKSRWQQGNVFSCSVMHEALHNAYTQKSLSLSPGK
light: DTQLTQSPSSLSASVGDRVTITCRASESVSTVIHWYQQKPGKQPKLLIHGASNLESGVPSRFSGSGSGTDFTLTISSLQPEDFATYFCQQHWNDPPTFGQGTKLEIKRTVAAPEFVLTQSPGTLSLSPGERATLSCERSSGDIGESYVSWYQQKPGQAPRLVIYADDQRPSGIPDRFSGSGSGTDFTLTISRLEPEDFAVYYCQSYDINIDIVFGGGTKVEIKRTVAAPSVFIFPPSDEQLKSGTASVVCLLNNFYPREAKVQWKVDNALQSGNSQESVTEQDSKDSTYSLSSTLTLSKADYEKHKVYACEVTHQGLSSPVTKSFNRGEC
notes: DVD-Ig: outer hBEW-9A8.12 (VEGF), inner hBDI-9E8.4E (PDGF), linkers HG-long/LK-short; Human IgG1 L234A, L235A, H435A with kappa
Regarding B4, in the test with VEGF-A, the affinity, expressed as Kd, was 0.35 nM and the kon turned out to be 270000 M⁻¹ s⁻¹. In the test with PDGF-BB, this molecule returned a Kd of 0.0065 nM and an association rate constant (kon) of 3.6e+07 M⁻¹ s⁻¹.
